Source: publication PMC2715226

Key:
Ets-1 p42 [1] = target: T1, Ets-1 p42 (human, UniProt P14921-2 1-354); assay: not stated
T1 sequence: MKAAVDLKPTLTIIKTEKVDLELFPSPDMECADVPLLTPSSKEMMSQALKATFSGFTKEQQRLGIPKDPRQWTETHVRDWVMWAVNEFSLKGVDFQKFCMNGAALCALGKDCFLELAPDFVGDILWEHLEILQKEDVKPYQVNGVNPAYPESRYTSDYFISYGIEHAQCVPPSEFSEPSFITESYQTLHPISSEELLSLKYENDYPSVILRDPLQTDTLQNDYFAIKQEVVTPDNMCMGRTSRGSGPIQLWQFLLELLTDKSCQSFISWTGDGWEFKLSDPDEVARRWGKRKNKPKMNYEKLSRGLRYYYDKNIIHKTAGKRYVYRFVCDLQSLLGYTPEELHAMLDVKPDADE

Ets-1 p42 [2] = target: T1, Ets-1 p42; assay: EMSA
p51(301-415) = target: T2, p51(301-415) (human, UniProt P14921 301-415); assay: EMSA
T2 sequence: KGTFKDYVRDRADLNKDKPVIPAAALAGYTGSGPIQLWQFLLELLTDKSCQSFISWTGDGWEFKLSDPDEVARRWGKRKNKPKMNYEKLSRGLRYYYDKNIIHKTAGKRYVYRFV

p42ΔC328 = target: T3, p42ΔC328 (human, UniProt P14921-2 1-328); assay: EMSA
T3 sequence: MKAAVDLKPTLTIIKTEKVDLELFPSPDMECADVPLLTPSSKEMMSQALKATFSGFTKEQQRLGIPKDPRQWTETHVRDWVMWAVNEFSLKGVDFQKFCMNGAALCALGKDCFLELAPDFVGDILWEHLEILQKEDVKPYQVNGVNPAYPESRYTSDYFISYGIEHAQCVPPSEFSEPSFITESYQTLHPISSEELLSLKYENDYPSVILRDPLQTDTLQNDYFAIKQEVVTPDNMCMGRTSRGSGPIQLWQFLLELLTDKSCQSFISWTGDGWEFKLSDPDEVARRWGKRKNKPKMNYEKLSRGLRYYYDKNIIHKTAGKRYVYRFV

p51ΔC415 = target: T4, p51ΔC415 (human, UniProt P14921 1-415); assay: EMSA
T4 sequence: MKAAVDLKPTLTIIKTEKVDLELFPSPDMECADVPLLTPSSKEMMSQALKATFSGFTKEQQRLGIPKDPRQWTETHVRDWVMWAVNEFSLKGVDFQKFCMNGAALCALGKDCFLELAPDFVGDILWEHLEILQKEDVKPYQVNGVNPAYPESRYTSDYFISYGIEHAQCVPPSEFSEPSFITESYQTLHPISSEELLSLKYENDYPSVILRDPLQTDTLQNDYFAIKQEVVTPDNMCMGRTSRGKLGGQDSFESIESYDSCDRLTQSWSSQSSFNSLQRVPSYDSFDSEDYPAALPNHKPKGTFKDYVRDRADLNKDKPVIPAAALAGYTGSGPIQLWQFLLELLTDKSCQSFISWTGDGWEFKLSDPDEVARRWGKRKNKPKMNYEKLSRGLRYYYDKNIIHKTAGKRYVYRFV

p51ΔN331 = target: T5, p51ΔN331 (human, UniProt P14921 331-441); assay: EMSA
T5 sequence: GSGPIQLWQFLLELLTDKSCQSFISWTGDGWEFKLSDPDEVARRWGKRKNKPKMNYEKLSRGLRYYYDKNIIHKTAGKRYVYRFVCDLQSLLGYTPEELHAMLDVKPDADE

Ets-1 DBD = target: T6, Ets-1 DBD (human, UniProt P14921 331-415); assay: EMSA
T6 sequence: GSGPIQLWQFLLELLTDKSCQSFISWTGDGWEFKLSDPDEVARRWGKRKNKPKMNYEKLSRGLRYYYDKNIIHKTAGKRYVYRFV

Binder	Kd (Ets-1 p42 [1]) [nM]	binding result (Ets-1 p42 [2])	other results
M2 (dsDNA) DNA 1: ACCAAGACAGGAAGCACTTTTTGGAGATTA DNA 2: TAATCTCCAAAAAGTGCTTCCTGTCTTGGT	~20	–	–
IP (dsDNA) DNA 1: ACCAAGAGCTTCCTGCAGGAAGTGAGATTA DNA 2: TAATCTCACTTCCTGCAGGAAGCTCTTGGT	–	binds	–
WT+4 (dsDNA) DNA 1: ACCAAGACAGGAAGCACGCACTTCCTGGAGATTA DNA 2: TAATCTCCAGGAAGTGCGTGCTTCCTGTCTTGGT	–	binds	binding result (p51(301-415)): binds; binding result (p42ΔC328): binds; binding result (p51ΔC415): binds; binding result (p51ΔN331): binds; binding result (Ets-1 DBD): binds
M1 (dsDNA) DNA 1: ACCAAGACAAAAAGCACTTCCTGGAGATTA DNA 2: TAATCTCCAGGAAGTGCTTTTTGTCTTGGT	~20	–	–
WT (dsDNA) DNA 1: ACCAAGACAGGAAGCACTTCCTGGAGATTA DNA 2: TAATCTCCAGGAAGTGCTTCCTGTCTTGGT	~20	–	–
